Experimental data reported in patent US8372961B2, “Polynucleotides encoding concatameric immunoadhesion molecules” (Medexgen Co., Ltd., priority 2001, dated 2013).

Legend:
[1] = biological target: TNFα (Homo sapiens, UniProt P01375); experiment: Neutralization of TNFα cytotoxicity on L929 cells (crystal violet staining); format: cell-based; details: for IC50 of cytotoxicity inhibition, TNFα treated: actinomycin D 3 μg/ml, TNFα 0.5~2 ng/ml (100% cytotoxicity), 16~18 hrs
Experimental: (§1) An L929 cell [ATCC, Mus musculus (mouse), NCTC clone 929 (derivative of strain L; L-929; L cell) was used for testing the effect of TNFR/Fc fusion protein on the inhibition of cytotoxicity induced by TNFα and TNFβ. This analysis was based on the TNFR activity of inhibiting cytotoxicity induced by TNF (Scallon et al., Cytokine 7:759, 1995).
(§2) L929 cells were inoculated to be 3×10^4 cells/well in 96-well plates, and incubated at 37° C. for 24 hrs in a CO2 incubator. Subsequently, actinomycin D (Sigma, USA) was added to 3 μg/ml, and cells were incubated for 16˜18 hrs with TNFα and TNFβ in the concentration of expressing 100% cytotoxicity (0.5˜2 ng/ml), and with serially 10 times diluted TNFR sample. Then, the cells in the 96-well plate were stained by the staining reagent, crystal violet (Wake Pure Chemical Industries, Japan) and the activity of the cells was estimated by the degree of absorbance at 595 nm wavelength using a spectrophotometer (Bio-Rad, Model-550, Japan).

[2] = biological target: T1, TNFβ (Homo sapiens, UniProt P01374); experiment: Neutralization of TNFβ cytotoxicity on L929 cells (crystal violet staining); format: cell-based; details: for IC50 of cytotoxicity inhibition, TNFβ treated: actinomycin D 3 μg/ml, TNFβ 0.5~2 ng/ml (100% cytotoxicity), 16~18 hrs
T1 sequence (P01374 35-205): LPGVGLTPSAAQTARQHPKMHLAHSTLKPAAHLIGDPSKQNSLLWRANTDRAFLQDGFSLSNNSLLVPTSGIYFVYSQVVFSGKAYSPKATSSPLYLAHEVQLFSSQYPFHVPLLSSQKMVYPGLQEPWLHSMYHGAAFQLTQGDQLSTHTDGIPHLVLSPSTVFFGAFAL
Experimental: as §1, §2

Sequence of TNFα (P01375 77-233 limits assumed, species assumed): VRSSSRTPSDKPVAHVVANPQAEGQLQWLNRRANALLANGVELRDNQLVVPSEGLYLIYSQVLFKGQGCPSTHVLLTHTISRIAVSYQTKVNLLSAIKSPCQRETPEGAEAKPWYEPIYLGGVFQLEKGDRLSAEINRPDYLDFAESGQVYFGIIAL

Substance	IC50 of cytotoxicity inhibition, TNFα treated [1] [µg/mL]	IC50 of cytotoxicity inhibition, TNFβ treated [2] [µg/mL]	inhibitory effect on the cytotoxicity induced by TNFα, compared with simple dimeric fusion proteins ([1]; versus TNFR1/Ig and TNFR2/Ig)	inhibitory effect on the cytotoxicity induced by TNFβ, compared with simple dimeric fusion proteins ([2]; versus TNFR1/Ig and TNFR2/Ig)
[TNFR1/Fc]2: conventional simple fusion dimeric protein: soluble extracellular domain of human TNFR1 fused to IgG1 Fc; monomer SEQ ID NO: 2 [reference compound]	63	129	–	–
[TNFR1-TNFR1/Fc]2: concatameric fusion dimeric protein: two TNFR1 soluble extracellular domains in tandem fused to IgG1 Fc; monomer SEQ ID NO: 6	9	20	higher inhibitory effect	higher inhibitory effect
